B1: PABP-interacting protein 2A (Paip2A), full length (natural protein, human, UniProt Q9BPZ3 1-127, looked up)
chain: MKDPSRSSTSPSIINEDVIINGHSHEDDNPFAEYMWMENEEEFNRQIEEELWEEEFIERCFQEMLEEEEEHEWFIPARDLPQTMDQIQDQFNDLVISDGSSLEDLVVKSNLNPNAKEFVPGVKYGNI
B2: PABPC1 RRM2 including the RRM2-3 linker (residues 100-190) (domain or fragment)
chain: not shown
B3: Paip2A(25-83) (residues 25-83 of PABP-interacting protein 2A) (domain or fragment, human, UniProt Q9BPZ3 25-83, looked up)
chain: HEDDNPFAEYMWMENEEEFNRQIEEELWEEEFIERCFQEMLEEEEEHEWFIPARDLPQT
B4: PABPC1 RRM3 including the RRM3-4 linker (residues 191-289) (domain or fragment, human, UniProt P11940 191-289, looked up)
chain: TNVYIKNFGEDMDDERLKDLFGKFGPALSVKVMTDESGKSKGFGFVSFERHEDAQKAVDEMNGKELNGKQIYVGRAQKKVERQTELKRKFEQMKQDRIT
B5: PABPC1 RRM2/3 (residues 100-289) (domain or fragment, human)
chain: GPLGSNIFIKNLDKSIDNKALYDTFSAFGNILSCKVVCDENGSKGYGFVHFETQEAAERAIEKMNGMLLNDRKVFVGRFKSRKEREAELGARAKEFTNVYIKNFGEDMDDERLKDLFGKFGPALSVKVMTDESGKSKGFGFVSFERHEDAQKAVDEMNGKELNGKQIYVGRAQKKVERQTELKRKFEQMKQDRIT

Key:
[1] = target: B5; test: NMR titration
[2] = target: poly(A)-binding protein C1 (PABPC1), full length (human, UniProt P11940 1-636); test: SPR
[3] = target: PABPC1 RRM1/2/3/4 (residues 1-370) (human, UniProt P11940 1-370); test: SPR
[4] = target: B3; test: ITC
[5] = target: B2; test: ITC
[6] = target: B5; test: ITC
[7] = target: B4; test: ITC

| Binder | dH [4] | stoichiometry N [4] | further results |
| --- | --- | --- | --- |
| B1 | – | – | binding result [1]: binds; binding result [2]: binds; binding result [3]: binds |
| B2 | -28.7 kcal/mol | 0.87 | – |
| B3 | – | – | Kd [5]: 4 µM; Kd [6]: 0.0019 µM; Kd [7]: 1.3 µM |
| B4 | -43 kcal/mol | 0.87 | – |
| B5 | -55 kcal/mol | 0.83 | – |
